Values of other authors as cited in paper PMC12799613.

What was measured:
TRPC5 (Homo sapiens) = TRPC5 (Homo sapiens) (UniProt Q9UL62)
[1] = molecular target: TRPM3 peptide (Mus musculus) (UniProt J9SQF3)
[2] = molecular target: GIRK2 (Kir3.2), first Gβγ binding (Mus musculus) (UniProt P48542)
[3] = molecular target: GIRK2 (Kir3.2), fourth Gβγ binding (Mus musculus) (UniProt P48542)
Chain of GIRK2 (Kir3.2), fourth Gβγ binding (Mus musculus) (P48542 whole entry): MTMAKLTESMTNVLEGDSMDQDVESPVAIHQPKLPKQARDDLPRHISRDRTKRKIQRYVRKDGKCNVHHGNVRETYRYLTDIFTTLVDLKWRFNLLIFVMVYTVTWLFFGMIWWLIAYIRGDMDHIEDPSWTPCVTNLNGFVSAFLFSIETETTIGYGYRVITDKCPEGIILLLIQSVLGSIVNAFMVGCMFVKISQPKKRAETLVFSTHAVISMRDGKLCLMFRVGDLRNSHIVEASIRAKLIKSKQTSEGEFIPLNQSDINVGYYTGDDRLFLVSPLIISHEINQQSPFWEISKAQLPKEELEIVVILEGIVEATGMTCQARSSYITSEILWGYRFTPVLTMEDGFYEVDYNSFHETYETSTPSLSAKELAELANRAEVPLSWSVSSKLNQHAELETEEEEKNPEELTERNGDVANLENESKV

Chain of Gβ1γ2 (P62873 2-340): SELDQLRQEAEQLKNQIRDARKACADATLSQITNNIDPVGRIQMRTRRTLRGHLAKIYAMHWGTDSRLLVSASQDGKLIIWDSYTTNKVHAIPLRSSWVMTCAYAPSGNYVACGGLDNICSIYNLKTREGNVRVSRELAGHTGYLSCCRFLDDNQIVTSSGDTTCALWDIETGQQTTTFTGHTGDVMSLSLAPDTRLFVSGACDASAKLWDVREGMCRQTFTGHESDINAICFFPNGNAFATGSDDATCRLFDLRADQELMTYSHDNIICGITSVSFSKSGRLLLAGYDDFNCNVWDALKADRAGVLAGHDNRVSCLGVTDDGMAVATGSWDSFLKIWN
Chain of Gβ1γ2 (P59768 2-68, further chain): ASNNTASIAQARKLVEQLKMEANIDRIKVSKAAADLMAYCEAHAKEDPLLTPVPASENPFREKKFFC
Chain of Gαi3 (P08754 2-354): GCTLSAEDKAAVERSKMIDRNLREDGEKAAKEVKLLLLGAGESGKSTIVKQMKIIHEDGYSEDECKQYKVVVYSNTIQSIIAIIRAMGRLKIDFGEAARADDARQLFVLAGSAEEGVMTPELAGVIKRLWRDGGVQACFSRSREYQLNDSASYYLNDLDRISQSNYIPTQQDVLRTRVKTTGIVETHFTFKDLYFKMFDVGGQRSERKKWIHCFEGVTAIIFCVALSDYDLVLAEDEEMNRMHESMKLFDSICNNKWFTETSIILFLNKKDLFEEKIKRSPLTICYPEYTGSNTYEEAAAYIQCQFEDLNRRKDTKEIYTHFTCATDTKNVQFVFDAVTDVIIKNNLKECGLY
Chain of GIRK2 (Kir3.2), first Gβγ binding (Mus musculus) (P48542 whole entry): as the sequence (P48542 whole entry) above
Chain of TRPM3 peptide (Mus musculus) (J9SQF3 whole entry): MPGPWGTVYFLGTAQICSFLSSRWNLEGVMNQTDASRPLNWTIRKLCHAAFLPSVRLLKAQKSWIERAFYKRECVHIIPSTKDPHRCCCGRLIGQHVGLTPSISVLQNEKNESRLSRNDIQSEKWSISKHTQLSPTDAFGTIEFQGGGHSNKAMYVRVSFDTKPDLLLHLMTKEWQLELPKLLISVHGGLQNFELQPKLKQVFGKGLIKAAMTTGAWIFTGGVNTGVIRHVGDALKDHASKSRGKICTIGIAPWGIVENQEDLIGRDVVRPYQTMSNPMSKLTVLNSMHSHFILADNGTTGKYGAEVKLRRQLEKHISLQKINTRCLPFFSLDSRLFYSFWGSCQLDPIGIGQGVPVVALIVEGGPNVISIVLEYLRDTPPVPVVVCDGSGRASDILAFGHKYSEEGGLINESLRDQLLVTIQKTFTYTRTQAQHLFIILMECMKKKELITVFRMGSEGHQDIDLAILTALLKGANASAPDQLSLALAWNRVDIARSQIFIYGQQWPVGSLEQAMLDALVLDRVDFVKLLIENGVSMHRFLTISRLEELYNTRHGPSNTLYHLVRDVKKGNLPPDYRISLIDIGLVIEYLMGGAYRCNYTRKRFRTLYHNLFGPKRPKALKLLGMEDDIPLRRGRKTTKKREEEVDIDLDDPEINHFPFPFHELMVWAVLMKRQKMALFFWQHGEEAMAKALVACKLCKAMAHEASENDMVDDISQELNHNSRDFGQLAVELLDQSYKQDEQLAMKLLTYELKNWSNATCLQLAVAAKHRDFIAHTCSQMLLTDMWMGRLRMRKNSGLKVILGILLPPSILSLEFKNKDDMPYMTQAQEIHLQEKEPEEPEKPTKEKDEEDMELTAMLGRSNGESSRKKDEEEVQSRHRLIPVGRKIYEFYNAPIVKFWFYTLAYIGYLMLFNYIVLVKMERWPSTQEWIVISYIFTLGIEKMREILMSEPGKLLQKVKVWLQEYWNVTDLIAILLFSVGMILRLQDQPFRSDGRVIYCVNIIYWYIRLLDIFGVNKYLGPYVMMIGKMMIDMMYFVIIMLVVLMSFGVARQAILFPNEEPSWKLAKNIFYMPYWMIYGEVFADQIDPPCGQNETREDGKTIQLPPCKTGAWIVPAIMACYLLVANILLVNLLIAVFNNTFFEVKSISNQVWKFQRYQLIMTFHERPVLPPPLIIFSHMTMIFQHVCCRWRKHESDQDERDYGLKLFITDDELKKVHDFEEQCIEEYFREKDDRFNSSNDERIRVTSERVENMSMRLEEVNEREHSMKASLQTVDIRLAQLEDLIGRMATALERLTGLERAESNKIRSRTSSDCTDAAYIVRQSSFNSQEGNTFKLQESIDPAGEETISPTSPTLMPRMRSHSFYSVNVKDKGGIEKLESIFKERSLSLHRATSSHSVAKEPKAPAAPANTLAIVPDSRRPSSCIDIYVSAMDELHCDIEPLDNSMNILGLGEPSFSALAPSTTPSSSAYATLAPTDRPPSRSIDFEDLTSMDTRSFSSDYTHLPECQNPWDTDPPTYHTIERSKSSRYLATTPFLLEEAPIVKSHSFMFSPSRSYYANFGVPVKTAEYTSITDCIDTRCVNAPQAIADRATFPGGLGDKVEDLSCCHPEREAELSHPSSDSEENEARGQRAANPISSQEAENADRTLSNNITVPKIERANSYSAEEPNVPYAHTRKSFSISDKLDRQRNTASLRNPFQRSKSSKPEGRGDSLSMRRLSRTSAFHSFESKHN
Chain of TRPC5 (Homo sapiens) (Q9UL62 whole entry): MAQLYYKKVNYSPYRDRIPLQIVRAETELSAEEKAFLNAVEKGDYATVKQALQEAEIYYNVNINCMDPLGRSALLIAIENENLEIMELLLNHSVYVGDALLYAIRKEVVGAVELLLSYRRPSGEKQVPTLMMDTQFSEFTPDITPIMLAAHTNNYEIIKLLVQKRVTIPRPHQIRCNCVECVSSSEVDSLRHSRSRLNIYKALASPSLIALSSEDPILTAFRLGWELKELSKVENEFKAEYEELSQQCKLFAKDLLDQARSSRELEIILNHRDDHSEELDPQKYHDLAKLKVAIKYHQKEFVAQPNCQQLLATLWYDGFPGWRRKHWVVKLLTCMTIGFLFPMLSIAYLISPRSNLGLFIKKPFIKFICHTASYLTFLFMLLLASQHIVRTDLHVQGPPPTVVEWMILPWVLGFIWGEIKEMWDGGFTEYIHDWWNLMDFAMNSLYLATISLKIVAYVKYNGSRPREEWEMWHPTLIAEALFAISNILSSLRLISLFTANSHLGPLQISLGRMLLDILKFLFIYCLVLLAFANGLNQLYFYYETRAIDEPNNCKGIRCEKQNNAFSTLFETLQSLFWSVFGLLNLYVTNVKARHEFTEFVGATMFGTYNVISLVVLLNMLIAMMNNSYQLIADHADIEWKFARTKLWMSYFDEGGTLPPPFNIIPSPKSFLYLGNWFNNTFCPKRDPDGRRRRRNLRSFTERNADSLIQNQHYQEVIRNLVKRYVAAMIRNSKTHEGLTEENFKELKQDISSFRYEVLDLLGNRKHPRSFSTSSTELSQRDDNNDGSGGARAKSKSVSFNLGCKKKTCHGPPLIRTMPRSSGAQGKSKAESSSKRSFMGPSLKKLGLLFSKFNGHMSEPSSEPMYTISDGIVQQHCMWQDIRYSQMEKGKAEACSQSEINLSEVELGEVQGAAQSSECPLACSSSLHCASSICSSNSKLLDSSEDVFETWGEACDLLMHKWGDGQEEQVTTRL

Kd (TRPC5 (Homo sapiens)) | Kd [1] | Kd [2] | Kd [3] | Substance
910 nM |  |  |  | Gαi3 (from UniProt P08754)
 | 56 µM | 1.9 mM | 50 µM | Gβ1γ2 (from UniProt P62873)
